Primed or numbered codes have the meaning given here. FITC′ = fluorescein isothiocyanate
B1: RCD1-RST(499-572) (domain or fragment, Arabidopsis thaliana, UniProt Q8RY59 499-572, looked up)
chain: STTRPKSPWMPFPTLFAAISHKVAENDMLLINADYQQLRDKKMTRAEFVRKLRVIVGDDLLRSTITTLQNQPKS
notes: also called AtRCD1-RST; αα-hub RCD1-RST; source: E. coli BL21(DE3), purified (Source 15S cation exchange, Superdex 75 SEC)
B2: DREB2A(244-272)-WT (peptide, UniProt O82132 244-272, looked up)
chain: WPNDVDQSHLDSSDMFDVDELLRDLNGDD
notes: Expressed as GST-tagged peptide; 13C,15N-labelled for NMR, unlabelled for ITC; also called DREB2A-WT; source: E. coli BL21(DE3), purified (Glutathione Sepharose 4B, reversed phase Vydac C18)

What was measured:
[1] = target: DREB2A 244-272 (Arabidopsis thaliana) (UniProt O82132); experiment: stopped-flow kinetics; conditions: cited from earlier work
[2] = target: B2; experiment: ITC; 9-12 µM DREB2A(244-272) peptide in the cell, 92-100 µM RCD1-RST(499-572) in the syringe; 25 °C, 50 mM HEPES pH 7.4, 300 mM NaCl; one set of sites model; n = 3; conditions: both partners purified
[3] = target: B1; experiment: as above; conditions: both partners purified
[4] = target: B1; experiment: stopped-flow fluorescence spectroscopy; association and displacement (dissociation) kinetics; 10 °C, 50 mM HEPES pH 7.4, 200 mM NaCl; conditions: both partners purified
[5] = target: B1; experiment: stopped-flow fluorescence spectroscopy; association and displacement (dissociation) kinetics; 10 °C, 50 mM HEPES pH 7.4, 300 mM NaCl; conditions: both partners purified
[6] = target: B1; experiment: stopped-flow fluorescence spectroscopy; association and displacement (dissociation) kinetics; 10 °C, 50 mM HEPES pH 7.4, 500 mM NaCl; conditions: both partners purified
[7] = target: B1; experiment: stopped-flow fluorescence spectroscopy; association kinetics; 10 °C, 50 mM HEPES pH 7.4, 150 mM NaCl; conditions: both partners purified
[8] = target: B1; experiment: stopped-flow fluorescence spectroscopy; 0.1 µM FITC-DREB2A peptide mixed with 1-6 µM RCD1-RST(499-572) (kon); preformed complex 1:0.1 µM displaced with 5-60 µM unlabelled DREB2A(244-272) (koff); Kd from the rate constants; 10 °C, 50 mM HEPES pH 7.4, 100 mM NaCl; conditions: both partners purified
[9] = target: B1; experiment: as above; conditions: both partners purified; remark: listed apart in the source
[10] = target: B1; experiment: stopped-flow fluorescence spectroscopy; association and displacement (dissociation) kinetics; 10 °C, 50 mM HEPES pH 7.4, 800 mM NaCl; conditions: both partners purified
[11] = target: B1; experiment: stopped-flow fluorescence spectroscopy; association kinetics; 10 °C, 50 mM HEPES pH 7.4, 50 mM NaCl; conditions: both partners purified

Kd [3] [nM]	kon [4] [M⁻¹ s⁻¹]	kon [5] [M⁻¹ s⁻¹]	kon [6] [M⁻¹ s⁻¹]	kon [7] [M⁻¹ s⁻¹]	koff [10] [s⁻¹]	kon [10] [M⁻¹ s⁻¹]	Molecule	kon [8] [M⁻¹ s⁻¹]	Kd [9] [nM]	koff [9] [s⁻¹]	kon [9] [M⁻¹ s⁻¹]	also measured
–	–	–	–	–	–	–	RCD1 499-572 (from UniProt Q8RY59)	–	–	–	–	Kd [1]: 0.8 nM
–	–	–	–	–	–	–	B1	–	–	–	–	dH [2]: -16.3 kcal/mol; stoichiometry N [2]: 0.84
66	–	–	–	–	–	–	WPNDVDQSHLDSSDMFDVDELLRLLNGDD (peptide, UniProt O82132 244-272, looked up, Expressed as GST-tagged peptide; 13C,15N-labelled for NMR, unlabelled for ITC; also called DREB2A-D267L; source: E. coli BL21(DE3), purified (Glutathione Sepharose 4B, reversed phase Vydac C18)) [DREB2A(244-272)-D267L]	–	–	–	–	–
369	–	–	–	–	–	–	WPNDVDQSHLDSSDMFDVDELLGDLNGDD (peptide, UniProt O82132 244-272, looked up, Expressed as GST-tagged peptide; 13C,15N-labelled for NMR, unlabelled for ITC; also called DREB2A-R266G; source: E. coli BL21(DE3), purified (Glutathione Sepharose 4B, reversed phase Vydac C18)) [DREB2A(244-272)-R266G]	–	–	–	–	–
–	1.42e+08	8.1e+07	4.5e+07	1.49e+08	0.223	2.2e+07	{FITC′}-NDVDQSHLDSSDMFDVDELLRLLNGDD-NH2 (peptide, UniProt O82132 246-272, looked up, also: acetylation stated, site not given here, also called fluorescently labeled DREB2A(244-272)-D267L; DREB2A-D267L; source: synthetic peptide, bought: TAG Copenhagen A/S (>98% purity)) [FITC-DREB2A(246-272) D267L]	1.78e+08	0.13	0.03	2.35e+08	–
–	1.2e+08	5.59e+07	2.1e+07	1.75e+08	5.29	1.06e+07	{FITC′}-NDVDQSHLDSSDMFDVDELLGDLNGDD-NH2 (peptide, UniProt O82132 246-272, looked up, also: acetylation stated, site not given here, also called fluorescently labeled DREB2A(244-272)-R266G; DREB2A-R266G; source: synthetic peptide, bought: TAG Copenhagen A/S (>98% purity)) [FITC-DREB2A(246-272) R266G]	2.06e+08	3	0.7	2.3e+08	kon [11]: 4.13e+08 M⁻¹ s⁻¹
–	–	–	–	–	–	–	{FITC′}-NDVDQSHLDSSDMFDVDELLRALNGDD-NH2 (peptide, UniProt O82132 246-272, looked up, also: acetylation stated, site not given here, also called DREB2A-D267A; DREB2A(244-272) variant D267A; source: synthetic peptide, bought: TAG Copenhagen A/S (>98% purity)) [FITC-DREB2A(246-272) D267A]	–	0.32	0.07	2.22e+08	–
–	–	–	–	–	–	–	{FITC′}-NDVDQSHLDSSDMFDVDELLADLNGDD-NH2 (peptide, UniProt O82132 246-272, looked up, also: acetylation stated, site not given here, also called DREB2A-R266A; DREB2A(244-272) variant R266A; source: synthetic peptide, bought: TAG Copenhagen A/S (>98% purity)) [FITC-DREB2A(246-272) R266A]	–	1.5	0.383	2.46e+08	–
84	–	–	–	–	–	–	B2	–	–	–	–	–
–	4.5e+07	3.6e+07	2.3e+07	1.18e+08	1.78	8e+06	{FITC′}-NDVDQSHLDSSDMFDVDELLRDLNGDD-NH2 (peptide, UniProt O82132 246-272, looked up, also: acetylation stated, site not given here, also called fluorescently labeled DREB2A(244-272)-WT; source: synthetic peptide, bought: TAG Copenhagen A/S (>98% purity)) [FITC-DREB2A(246-272) WT]	2.45e+08	–	–	–	kon [11]: 3.35e+08 M⁻¹ s⁻¹; koff [4]: 0.4 s⁻¹; koff [5]: 0.53 s⁻¹; koff [6]: 0.94 s⁻¹; koff [8]: 0.18 s⁻¹

Reference: PMC9849366, “Evolutionary fine-tuning of residual helix structure in disordered proteins manifests in complex structure and lifetime” (Communications Biology, 2023)
